Molecular target: Nus-Tag EGFRvIII ECD deletion mutant CT 292–346 (Homo sapiens, UniProt P00533)
Experiment: ELISA

B1: D2C7 monoclonal antibody (antibody, V domains shown)
VH: EVHLQQSGPELEKPGASVKISCKASGYSFTGYNMNWVKQSNGKSLEWIGNIDPYYGDTDYDQKFKGKATLTADKSSNTVYMQLQSLTSEDSAVYYCARGAHRDYYAMDYWGQGTSVTVSS
VL: DIQMTQSPASLSASVGETVTITCRTSENIYIYLAWYQQKQGKSPQLLVYNAKTLAEGVPSRFSGSGSGTQFSLKINGLQPEDFGGYYCQQHYGTPYTFGGGTKLEKK
- binding result: binds

From paper PMC3766439 (Clinical cancer research : an official journal of the …, 2013)
